Measured values published in the supplement of paper PMC10567573.

B1: CFHR2 (parent)
chain: FVENGHSESSGQTHLEGDTVQIIC
B2: TRAF3IP2 (parent)
chain: KQGSMNFRFIPVLFPNAKKEHVPT

Variants of: B1
Assay: protein stability index of a GFP-peptide fusion (GPS, HEK-293T) (PSI 1-6); higher = more stable
Conditions: c terminus: a fixed tail appended
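Also: lentivirally expressed fusions sorted by FACS into six bins by GFP to DsRed ratio, PSI derived from sequencing read proportions per bin multiplied by bin number.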

In order of rising protein stability index:
1. FVCNGHSESSGQTHLEGDTVQIIC  1.38
2. FVMNGHSESSGQTHLEGDTVQIIC  1.5
3. FVVNGHSESSGQTHLEGDTVQIIC  1.54
4. FVWNGHSESSGQTHLEGDTVQIIC  1.56
5. FVRNGHSESSGQTHLEGDTVQIIC  1.67
6. FVDNGHSESSGQTHLEGDTVQIIC  1.74
7. FVELGHSESSGQTHLEGDTVQIIC  1.76
8. FVKNGHSESSGQTHLEGDTVQIIC  1.78
9. FVEMGHSESSGQTHLEGDTVQIIC  1.8
10. FVLNGHSESSGQTHLEGDTVQIIC  1.81
11. FVENRHSESSGQTHLEGDTVQIIC  1.82
12. FVQNGHSESSGQTHLEGDTVQIIC  1.83
13. FVEFGHSESSGQTHLEGDTVQIIC  1.83
14. FVNNGHSESSGQTHLEGDTVQIIC  1.92
15. FVENGYSESSGQTHLEGDTVQIIC  1.93
16. FVINGHSESSGQTHLEGDTVQIIC  1.94
17. FVYNGHSESSGQTHLEGDTVQIIC  1.98
18. FVECGHSESSGQTHLEGDTVQIIC  1.98
19. FVENCHSESSGQTHLEGDTVQIIC  2.03
20. FVFNGHSESSGQTHLEGDTVQIIC  2.04
21. FVERGHSESSGQTHLEGDTVQIIC  2.05
22. FVHNGHSESSGQTHLEGDTVQIIC  2.08
23. FVANGHSESSGQTHLEGDTVQIIC  2.11
24. FVSNGHSESSGQTHLEGDTVQIIC  2.12
25. FVEIGHSESSGQTHLEGDTVQIIC  2.13
26. FVEVGHSESSGQTHLEGDTVQIIC  2.18
27. FVENGLSESSGQTHLEGDTVQIIC  2.19
28. FVENIHSESSGQTHLEGDTVQIIC  2.2
29. FVTNGHSESSGQTHLEGDTVQIIC  2.23
30. FVENPHSESSGQTHLEGDTVQIIC  2.27
31. FVENMHSESSGQTHLEGDTVQIIC  2.28
32. FVENGCSESSGQTHLEGDTVQIIC  2.28
33. FVENGFSESSGQTHLEGDTVQIIC  2.29
34. FVENGMSESSGQTHLEGDTVQIIC  2.32
35. FVENGHCESSGQTHLEGDTVQIIC  2.34
36. FVENGQSESSGQTHLEGDTVQIIC  2.37
37. FVEYGHSESSGQTHLEGDTVQIIC  2.37
38. FVPNGHSESSGQTHLEGDTVQIIC  2.38
39. FVESGHSESSGQTHLEGDTVQIIC  2.4
40. FVEAGHSESSGQTHLEGDTVQIIC  2.42
41. FVENHHSESSGQTHLEGDTVQIIC  2.49
42. FVETGHSESSGQTHLEGDTVQIIC  2.51
43. FVEPGHSESSGQTHLEGDTVQIIC  2.53
44. FVENFHSESSGQTHLEGDTVQIIC  2.55
45. FVENQHSESSGQTHLEGDTVQIIC  2.57
46. FVENGISESSGQTHLEGDTVQIIC  2.57
47. FVEGGHSESSGQTHLEGDTVQIIC  2.59
48. FVEHGHSESSGQTHLEGDTVQIIC  2.62
49. FVENKHSESSGQTHLEGDTVQIIC  2.64
50. YVENGHSESSGQTHLEGDTVQIIC  2.69
51. FVENGWSESSGQTHLEGDTVQIIC  2.7
52. FVENGHAESSGQTHLEGDTVQIIC  2.72
53. FVENGVSESSGQTHLEGDTVQIIC  2.74
54. FVENLHSESSGQTHLEGDTVQIIC  2.77
55. FVENAHSESSGQTHLEGDTVQIIC  2.77
56. FVENGTSESSGQTHLEGDTVQIIC  2.79
57. FVEWGHSESSGQTHLEGDTVQIIC  2.8
58. FVEQGHSESSGQTHLEGDTVQIIC  2.81
59. FVGNGHSESSGQTHLEGDTVQIIC  2.83
60. FVENGRSESSGQTHLEGDTVQIIC  2.85
61. FVENVHSESSGQTHLEGDTVQIIC  2.87
62. FVENGSSESSGQTHLEGDTVQIIC  2.92
63. FVENTHSESSGQTHLEGDTVQIIC  2.97
64. FVENSHSESSGQTHLEGDTVQIIC  3.01
65. FVENGASESSGQTHLEGDTVQIIC  3.02
66. FVEKGHSESSGQTHLEGDTVQIIC  3.03
67. FVENYHSESSGQTHLEGDTVQIIC  3.09
68. FMENGHSESSGQTHLEGDTVQIIC  3.12
69. FVENGGSESSGQTHLEGDTVQIIC  3.12
70. FVENGPSESSGQTHLEGDTVQIIC  3.18
71. FVENNHSESSGQTHLEGDTVQIIC  3.23
72. FVENGKSESSGQTHLEGDTVQIIC  3.33
73. FWENGHSESSGQTHLEGDTVQIIC  3.35
74. FYENGHSESSGQTHLEGDTVQIIC  3.44
75. FVEEGHSESSGQTHLEGDTVQIIC  3.47
76. FVENWHSESSGQTHLEGDTVQIIC  3.48
77. FVENGNSESSGQTHLEGDTVQIIC  3.52
78. FLENGHSESSGQTHLEGDTVQIIC  3.59
79. FFENGHSESSGQTHLEGDTVQIIC  3.62
80. FGENGHSESSGQTHLEGDTVQIIC  3.62
81. FVENDHSESSGQTHLEGDTVQIIC  3.64
82. FVENGESESSGQTHLEGDTVQIIC  3.65
83. FIENGHSESSGQTHLEGDTVQIIC  3.72
84. CVENGHSESSGQTHLEGDTVQIIC  3.73
85. FQENGHSESSGQTHLEGDTVQIIC  3.81
86. FHENGHSESSGQTHLEGDTVQIIC  3.82
87. RVENGHSESSGQTHLEGDTVQIIC  3.83
88. WVENGHSESSGQTHLEGDTVQIIC  3.86
89. FVENGDSESSGQTHLEGDTVQIIC  3.87
90. FPENGHSESSGQTHLEGDTVQIIC  3.88
91. LVENGHSESSGQTHLEGDTVQIIC  3.89
92. VVENGHSESSGQTHLEGDTVQIIC  3.92
93. FVEDGHSESSGQTHLEGDTVQIIC  3.92
94. FTENGHSESSGQTHLEGDTVQIIC  3.94
95. TVENGHSESSGQTHLEGDTVQIIC  3.96
96. FRENGHSESSGQTHLEGDTVQIIC  3.96
97. IVENGHSESSGQTHLEGDTVQIIC  4
98. FCENGHSESSGQTHLEGDTVQIIC  4
99. FAENGHSESSGQTHLEGDTVQIIC  4
100. FKENGHSESSGQTHLEGDTVQIIC  4.01
101. FVENEHSESSGQTHLEGDTVQIIC  4.09
102. NVENGHSESSGQTHLEGDTVQIIC  4.1
103. SVENGHSESSGQTHLEGDTVQIIC  4.14
104. FNENGHSESSGQTHLEGDTVQIIC  4.16
105. FSENGHSESSGQTHLEGDTVQIIC  4.18
106. FDENGHSESSGQTHLEGDTVQIIC  4.19
107. KVENGHSESSGQTHLEGDTVQIIC  4.2
108. MVENGHSESSGQTHLEGDTVQIIC  4.23
109. AVENGHSESSGQTHLEGDTVQIIC  4.27
110. GVENGHSESSGQTHLEGDTVQIIC  4.33
111. QVENGHSESSGQTHLEGDTVQIIC  4.37
112. HVENGHSESSGQTHLEGDTVQIIC  4.43
113. FEENGHSESSGQTHLEGDTVQIIC  4.54
114. PVENGHSESSGQTHLEGDTVQIIC  4.61
115. DVENGHSESSGQTHLEGDTVQIIC  4.7
116. EVENGHSESSGQTHLEGDTVQIIC  4.95

Variants of: B2
Assay: as above
Conditions: c terminus: a fixed tail appended

In order of falling protein stability index:
1. KQGSMNFRFIIVLFPNAKKEHVPT  3.73
2. KQGSMNERFIPVLFPNAKKEHVPT  3.67
3. KQGSMNFIFIPVLFPNAKKEHVPT  2.88
4. KQGSENFRFIPVLFPNAKKEHVPT  2.88
5. KQGSMNHRFIPVLFPNAKKEHVPT  2.87
6. KQGSMNFRFIPNLFPNAKKEHVPT  2.84
7. KIGSMNFRFIPVLFPNAKKEHVPT  2.82
8. KQGSMNFRFGPVLFPNAKKEHVPT  2.76
9. KQGSMNFRFIPVLQPNAKKEHVPT  2.71
10. KQGSMNFPFIPVLFPNAKKEHVPT  2.68
11. KQGSMNFRFIPVDFPNAKKEHVPT  2.62
12. KQGSMNFRFIPVLFPNAKKEHVWT  2.58
13. KQGSMNFRFIPVLFVNAKKEHVPT  2.56
14. KQGSMNFRFIPVLMPNAKKEHVPT  2.56
15. KQGSMNFCFIPVLFPNAKKEHVPT  2.52
16. KQGSMNFRFIPRLFPNAKKEHVPT  2.49
17. KQGDMNFRFIPVLFPNAKKEHVPT  2.4
18. KQGSMNFRFIPVLFPNAKKEHGPT  2.4
19. KQGSMNFRFIPVLFPNAKHEHVPT  2.34
20. KQGSMNFRFCPVLFPNAKKEHVPT  2.3
21. KQGSMNFRFIPVLFPNAKKMHVPT  2.3
22. KQGSMNFRFIPVNFPNAKKEHVPT  2.28
23. KQGSMNFRFIPVLFPNAKKVHVPT  2.26
24. KQWSMNFRFIPVLFPNAKKEHVPT  2.25
25. KQGSMNFRFIPVLFPNAKKEHNPT  2.23
26. GQGSMNFRFIPVLFPNAKKEHVPT  2.19
27. KQGSMNFRFIPVLFPNAKKEAVPT  2.19
28. KQGSMNFRFIPVLFPNAKKEHEPT  2.19
29. HQGSMNFRFIPVLFPNAKKEHVPT  2.17
30. KQGSMNFRFIPVLFPNAKKNHVPT  2.15
31. KQGSMNFRFIPVLFPNAKKEPVPT  2.14
32. KQGSMNFRFIPVLFPNAKDEHVPT  2.13
33. KQGSMNFRFFPVLFPNAKKEHVPT  2.11
34. KQGSMNFYFIPVLFPNAKKEHVPT  2.09
35. KQGSMNFRFIPVLFPNAKKEHLPT  2.09
36. WQGSMNFRFIPVLFPNAKKEHVPT  2.08
37. KQGSMNFRFIPVCFPNAKKEHVPT  2.07
38. KQGSMNFRFIPVLFPNAKKTHVPT  2.05
39. KQGSMNFTFIPVLFPNAKKEHVPT  2.04
40. KQGSMNFRFIPVLFPNAKKHHVPT  2.03
41. DQGSMNFRFIPVLFPNAKKEHVPT  2.02
42. KQDSMNFRFIPVLFPNAKKEHVPT  2.02
43. CQGSMNFRFIPVLFPNAKKEHVPT  2.01
44. KQGSINFRFIPVLFPNAKKEHVPT  2.01
45. KQGTMNFRFIPVLFPNAKKEHVPT  2
46. KQGSMNFRFIPVLFPNAKKEHVPC  1.94
47. KQGSMNFRFIPVRFPNAKKEHVPT  1.93
48. KNGSMNFRFIPVLFPNAKKEHVPT  1.91
49. KQGSVNFRFIPVLFPNAKKEHVPT  1.91
50. KQGSMNFRFIPVLFPNAKKEHVPH  1.89
51. KQGSMNFRFIPVPFPNAKKEHVPT  1.87
52. KQGSMNFRFIPVLFHNAKKEHVPT  1.87
53. KQGSYNFRFIPVLFPNAKKEHVPT  1.87
54. KQGSMNFRFIPMLFPNAKKEHVPT  1.86
55. KVGSMNFRFIPVLFPNAKKEHVPT  1.85
56. KQGSMNFRFIPVLFPNAYKEHVPT  1.84
57. KQRSMNFRFIPVLFPNAKKEHVPT  1.83
58. KQGSMNFRFIPVLFPNAKKEHPPT  1.82
59. KCGSMNFRFIPVLFPNAKKEHVPT  1.8
60. KQGSMNFRFIPVLFPNAQKEHVPT  1.77
61. KQGSMNFRFIPVMFPNAKKEHVPT  1.77
62. KQGSMNFRFIPVLFPNAMKEHVPT  1.76
63. KQGSMNFRFIPVLFPNAKKEHVPV  1.76
64. KQGSMNFRFIPVLFPNAKKEHVPF  1.75
65. KQGKMNFRFIPVLFPNAKKEHVPT  1.74
66. KQGSMNFRFIPVLFPNASKEHVPT  1.71
67. KQGHMNFRFIPVLFPNAKKEHVPT  1.68
68. KQGSMNFRFIPVLFPNALKEHVPT  1.61
69. KQGSMMFRFIPVLFPNAKKEHVPT  1.58
70. KQGSMGFRFIPVLFPNAKKEHVPT  1.56
71. KMGSMNFRFIPVLFPNAKKEHVPT  1.48
72. KQGSMNFRFIPVLFPNAKKEHVVT  1.4
